What was measured:
[1] = molecular target: FLT3 on the cell surface (human leukemia cell lines and patient cells) (human) (UniProt P36888); assay: flow cytometry, biotinylated antibody 10 ug/ml + Streptavidin-PE, REH cells (ALL)
[2] = molecular target: FLT3 on the cell surface (human leukemia cell lines and patient cells) (human) (UniProt P36888); assay: flow cytometry, biotinylated antibody 10 ug/ml + Streptavidin-PE, EOL-1 cells (AML)
[3] = molecular target: FLT3 on the cell surface (human leukemia cell lines and patient cells) (human) (UniProt P36888); assay: flow cytometry, biotinylated antibody 10 ug/ml + Streptavidin-PE, PL-21 cells (AML)
[4] = molecular target: FLT3 on the cell surface (human leukemia cell lines and patient cells) (human) (UniProt P36888); assay: flow cytometry, biotinylated antibody 10 ug/ml + Streptavidin-PE, SEM cells (B-ALL)
[5] = molecular target: FLT3 on the cell surface (human leukemia cell lines and patient cells) (human) (UniProt P36888); assay: flow cytometry, biotinylated antibody 10 ug/ml + Streptavidin-PE, SKM-1 cells (AML)
[6] = molecular target: FLT3 on the cell surface (human leukemia cell lines and patient cells) (human) (UniProt P36888); assay: flow cytometry, biotinylated antibody 10 ug/ml + Streptavidin-PE, THP-1 cells (AML)
[7] = molecular target: FLT3 on the cell surface (human leukemia cell lines and patient cells) (human) (UniProt P36888); assay: flow cytometry, biotinylated antibody 10 ug/ml + Streptavidin-PE, NALM-1 cells (CML)
[8] = molecular target: FLT3 on the cell surface (human leukemia cell lines and patient cells) (human) (UniProt P36888); assay: flow cytometry, biotinylated antibody 10 ug/ml + Streptavidin-PE, MOLM-13 cells (AML)
[9] = molecular target: FLT3 on the cell surface (human leukemia cell lines and patient cells) (human) (UniProt P36888); assay: flow cytometry, biotinylated antibody 10 ug/ml + Streptavidin-PE, MV-4-11 cells (AML)
[10] = molecular target: FLT3 on the cell surface (human leukemia cell lines and patient cells) (human) (UniProt P36888); assay: flow cytometry, biotinylated antibody 10 ug/ml + Streptavidin-PE, OCI-AML2 cells (AML)
[11] = molecular target: FLT3 on the cell surface (human leukemia cell lines and patient cells) (human) (UniProt P36888); assay: flow cytometry, biotinylated antibody 10 ug/ml + Streptavidin-PE, RS4;11 cells (B-ALL)
[12] = molecular target: FLT3 on the cell surface (human leukemia cell lines and patient cells) (human) (UniProt P36888); assay: flow cytometry, biotinylated antibody 10 ug/ml + Streptavidin-PE, MONOMAC-1 cells (AML)
[13] = molecular target: T1, FLT3 on the cell surface (human leukemia cell lines and patient cells) (human, UniProt P36888 27-993); assay: flow cytometry, biotinylated antibody 10 ug/ml + Streptavidin-PE, REH cells (ALL)
T1 construct: Endogenous or recombinant FLT3 on cells; also called Fms like tyrosine kinase 3 receptor; Flk2
Description: (§1) CHv62.21 was tested for binding to AML and B-ALL cell lines grown in vitro. (See, Table VII). Briefly, CHv62.21 and an isotype matched control antibody were biotinylated using NHS LC biotin. In vitro, exponentially grown cancer cell lines were used for all experiments. Cells were harvested by and washed by centrifugation. Cells were Fc blocked to reduce non-specific binding. Antibodies were diluted to 10 ug/ml final concentration and co-incubated with cells at 4° C. for 1 hour. At the end of the incubation, cells were washed and incubated with secondary detection Streptavidin-PE antibody at a final 1:200 (2.5 ug/ml) dilution for 1 hour at 4° C. After washing un-bound secondary antibody, cells were analyzed by FACS and geometric mean fluorescence was determined and reported. Fluorescence ratio was calculated as follows: Geo mean cHv62.21/Geo mean isotype control=MFR, a measure of fold expression above isotype control.

[14] = molecular target: T1, FLT3 on the cell surface (human …); assay: flow cytometry, biotinylated antibody 10 ug/ml + Streptavidin-PE, EOL-1 cells (AML)
Description: as §1

[15] = molecular target: T1, FLT3 on the cell surface (human …); assay: flow cytometry, biotinylated antibody 10 ug/ml + Streptavidin-PE, PL-21 cells (AML)
Description: as §1

[16] = molecular target: T1, FLT3 on the cell surface (human …); assay: flow cytometry, biotinylated antibody 10 ug/ml + Streptavidin-PE, SEM cells (B-ALL)
Description: as §1

[17] = molecular target: T1, FLT3 on the cell surface (human …); assay: flow cytometry, biotinylated antibody 10 ug/ml + Streptavidin-PE, SKM-1 cells (AML)
Description: as §1

[18] = molecular target: T1, FLT3 on the cell surface (human …); assay: flow cytometry, biotinylated antibody 10 ug/ml + Streptavidin-PE, THP-1 cells (AML)
Description: as §1

[19] = molecular target: T1, FLT3 on the cell surface (human …); assay: flow cytometry, biotinylated antibody 10 ug/ml + Streptavidin-PE, NALM-1 cells (CML)
Description: as §1

[20] = molecular target: T1, FLT3 on the cell surface (human …); assay: flow cytometry, biotinylated antibody 10 ug/ml + Streptavidin-PE, MOLM-13 cells (AML)
Description: as §1

[21] = molecular target: T1, FLT3 on the cell surface (human …); assay: flow cytometry, biotinylated antibody 10 ug/ml + Streptavidin-PE, MV-4-11 cells (AML)
Description: as §1

[22] = molecular target: T1, FLT3 on the cell surface (human …); assay: flow cytometry, biotinylated antibody 10 ug/ml + Streptavidin-PE, OCI-AML2 cells (AML)
Description: as §1

[23] = molecular target: T1, FLT3 on the cell surface (human …); assay: flow cytometry, biotinylated antibody 10 ug/ml + Streptavidin-PE, RS4;11 cells (B-ALL)
Description: as §1

[24] = molecular target: T1, FLT3 on the cell surface (human …); assay: flow cytometry, biotinylated antibody 10 ug/ml + Streptavidin-PE, MONOMAC-1 cells (AML)
Description: as §1

Sequence of FLT3 on the cell surface (human leukemia cell lines and patient cells) (human) (P36888 27-993 T227M limits assumed): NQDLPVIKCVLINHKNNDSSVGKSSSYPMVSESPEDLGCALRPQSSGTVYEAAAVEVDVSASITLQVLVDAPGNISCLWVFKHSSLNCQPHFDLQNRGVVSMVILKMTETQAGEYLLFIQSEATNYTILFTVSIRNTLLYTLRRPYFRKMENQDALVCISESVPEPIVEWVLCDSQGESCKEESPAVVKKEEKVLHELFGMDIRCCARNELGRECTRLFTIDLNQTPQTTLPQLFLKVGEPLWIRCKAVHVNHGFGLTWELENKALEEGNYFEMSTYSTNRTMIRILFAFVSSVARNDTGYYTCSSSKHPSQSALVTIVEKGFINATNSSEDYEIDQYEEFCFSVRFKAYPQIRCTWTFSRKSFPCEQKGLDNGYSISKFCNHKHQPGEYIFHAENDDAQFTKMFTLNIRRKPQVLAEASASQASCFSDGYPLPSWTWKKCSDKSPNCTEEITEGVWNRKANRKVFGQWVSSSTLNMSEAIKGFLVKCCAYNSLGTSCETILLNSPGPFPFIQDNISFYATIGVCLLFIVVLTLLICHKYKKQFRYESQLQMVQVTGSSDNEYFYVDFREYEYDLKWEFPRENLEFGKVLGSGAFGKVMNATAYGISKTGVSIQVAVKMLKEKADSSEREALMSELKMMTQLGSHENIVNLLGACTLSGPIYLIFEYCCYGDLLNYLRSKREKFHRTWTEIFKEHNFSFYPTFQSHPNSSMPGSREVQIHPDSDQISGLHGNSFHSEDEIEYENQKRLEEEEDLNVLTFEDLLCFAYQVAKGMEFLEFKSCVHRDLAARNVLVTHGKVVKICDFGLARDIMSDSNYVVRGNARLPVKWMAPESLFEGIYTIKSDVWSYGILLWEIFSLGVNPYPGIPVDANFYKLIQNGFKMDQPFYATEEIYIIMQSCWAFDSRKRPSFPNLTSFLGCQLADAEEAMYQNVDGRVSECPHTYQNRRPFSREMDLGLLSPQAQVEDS
T1 sequence (P36888 27-993 T227M limits assumed): as above

## isotype matched control antibody (Table VI)
[1]
  Geometric Mean fluorescence: 235
[2]
  Geometric Mean fluorescence: 281
[3]
  Geometric Mean fluorescence: 570
[4]
  Geometric Mean fluorescence: 212
[5]
  Geometric Mean fluorescence: 445
[6]
  Geometric Mean fluorescence: 474
[7]
  Geometric Mean fluorescence: 262
[8]
  Geometric Mean fluorescence: 320
[9]
  Geometric Mean fluorescence: 366
[10]
  Geometric Mean fluorescence: 329
[11]
  Geometric Mean fluorescence: 213
[12]
  Geometric Mean fluorescence: 338

B1: CHv62.21 MAb (antibody, human IgG1, kappa, V domains shown)
VH: EVQLVESGGGLVRPGGSLRLSCAASGFTFSGYSINWVRQAPGKGLEWVSSISSSSNYIYYADSVKGRFTISRDNAKNSLYLQMNSLRAEDTAVYYCAREGFIAGTTFDAFDIWGQGTMVTVSS
VL: DIQMTQSPSSLSASVGDRVTITCRASQGIRNDLGWYQQKPGKAPKRLIYAASSLQSGVPSRFSGSGSGTEFTLTISSLQPEDFATYYCLQHNGFPYTFGQGTKLEIKR
notes: also called cHv62-1b21.1
[13]
  MFR (Geo mean cHv62.21/Geo mean isotype control): 69 fold
[14]
  MFR (Geo mean cHv62.21/Geo mean isotype control): 50 fold
[15]
  MFR (Geo mean cHv62.21/Geo mean isotype control): 7 fold
[16]
  MFR (Geo mean cHv62.21/Geo mean isotype control): 623 fold
[17]
  MFR (Geo mean cHv62.21/Geo mean isotype control): 7 fold
[18]
  MFR (Geo mean cHv62.21/Geo mean isotype control): 42 fold
[19]
  MFR (Geo mean cHv62.21/Geo mean isotype control): 49 fold
[20]
  MFR (Geo mean cHv62.21/Geo mean isotype control): 44 fold
[21]
  MFR (Geo mean cHv62.21/Geo mean isotype control): 8 fold
[22]
  MFR (Geo mean cHv62.21/Geo mean isotype control): 17 fold
[23]
  MFR (Geo mean cHv62.21/Geo mean isotype control): 86 fold
[24]
  MFR (Geo mean cHv62.21/Geo mean isotype control): 34 fold

Source: patent US20180037657A1 (AGENSYS, published 2018)
